Source: the RNAGym collection of RNA variant scans (doi:10.1073/pnas.2313332121)

B1: TPR t1 (parent)
chain: GACCAAUCUGCCCUCAGAGCUCGAGAACAUCUUCGGAUGCAGAGGAGGCAGGCUUCGGUGGCGCGAUAGCGCCAACGUCCUCAACCUCCAAUGCAUCCCACCACAUGAUGAUGCCUGAAGAGCCUUGGUUUUUUG

Variants of: B1
Test: polymerase ribozyme fitness, log enrichment relative to wild type (log ratio); higher = more active; in vitro selection for triplet polymerase activity
Summary of the method: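 Mutant libraries of both subunits of a heterodimeric triplet polymerase ribozyme were PCR-built, transcribed, and selected once in triplicate, with frozen incubation at −7 °C and capture of gel-excised extended constructs on streptavidin beads before RT-PCR. Illumina sequencing of input and output libraries was filtered to genotypes with ≥10 input reads and ≥1 read per output. Fitness is the logarithm of genotype enrichment over wild-type enrichment, using inverse-variance-weighted replicate averages. The logarithm is base 2.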

Row | Variant | polymerase ribozyme fitness (log ratio)
1 | A27G | -1.52
2 | A27C A43C C114U | -4.33
3 | A27G C89A | -3.54
4 | C22G U106C C123G U133G | -2.48
5 | C22G U92G | -5.35
6 | A24G A111G G122U | -5
7 | G23A C79A G110C U125G | -6.79
8 | A27G G61C C88G G128A | -7.26
9 | G23A G120A | -4.02
10 | G23A G120C | -2.89
11 | G23A C56U G110C | -5.74
12 | A26G G48A G63U C101G | -4.73
13 | A26G C62U U133A | -4.26
14 | A27C C49U G61U U92C | -6.24
15 | G25U C34U G63C G93C G117C A121C G122A G127U | -6.74
16 | A24G C114G | -3.83
17 | A27C C94U | -3.16
18 | A27G G61A U81C A84C C104U G110U U131C | -2.62
19 | G25A A66U C70G G110C | -6.93
20 | A24U A43C G60C A84U G110C U129A | -6.86
21 | A26C G69C | -7.17
22 | A26C G69U | -3.86
23 | A26U A29G | -4.77
24 | A27G C73A | -2.84

Row | Variant | polymerase ribozyme fitness (log ratio)
25 | C22U G63C U78G U112A | -4.23
26 | A27C U87A A91G | -4.73
27 | G23A G48A C86G | -6.91
28 | A26U A75G A95G | -2.74
29 | A26U G61A | -3.03
30 | A24G C94A | -2.52
31 | C22U A46C C70U | -6.66
32 | G25U C76A G113C | -5.51
33 | A26U G36U C101U | -5.32
34 | G25A G93A | -6.22
35 | A26G G36U C72G | -4.71
36 | A27G A46C A50U | -4.64
37 | G25C C53G | -6.8
38 | G25C C53U | -5.22
39 | G23U A121C | -3.5
40 | A24G A46U C72G G93C G120U C124U | -5.77
41 | C22U G60A U96G | -4.57
42 | A27G G63A C79U | -1.86
43 | C22G G110U U125G | -4.31
44 | A26U A119G | -2.12
45 | C22U C72A | -3.91
46 | A27C C62U C94U | -2.79
47 | A24G C82G | -1.98
48 | A26U C62A A83U G117A | -6.44

Row | Variant | polymerase ribozyme fitness (log ratio)
49 | G23C G58A G61A C94G A111C | -7.65
50 | A24G G48A A83G | -2.89
51 | A26G C49U G63A A84C | -4.24
52 | A27U A43U | -5.8
53 | A27U A43G | -5.43
54 | C22U U87A | -3.71
55 | G25C C70G G107A A111U U129G | -7.14
56 | G23A A50U G61U G71C A100C A105C U116C U125A G128U | -5.77
57 | C22U C62A U106G A108C A121G G122U | -7.34
58 | A24G U54G G57C C124U | -2.01
59 | G23U G42A A46U G69U U109A C123U | -5.99
60 | G23A C40A | -4.86
61 | A24G A46G G57U A100C | -4
62 | C22U C72G C82A | -5
63 | C22U C49U C89A C123U | -6.02
64 | A24G C72G C94A | -2.87
65 | A27G U55A G77C A95C | -4.8
66 | C22U A27C A41U A50U G60C C82U | -6.98
67 | A24U C53G C72U C89A C124A | -7.6
68 | A27G G48C G71C G127C | -5.17
69 | C22G G71U C89A | -5.9
70 | A26U U81C | -3.05
71 | C22U A43C C123G | -4.32
72 | G25U C56G U81G A121G C124U | -5.96

Row | Variant | polymerase ribozyme fitness (log ratio)
73 | A27G C49U C76G | -2.99
74 | A27C C82U C124A | -0.986
75 | A24U G69U | -3.76
76 | A27G C49A U78C | -2.36
77 | C22U A66U G120A | -4.81
78 | G23C C56A U59G G113A | -6.74
79 | A26U G47A | -4.24
80 | A26U U54C U133A | -4
81 | G25C G61A | -4.35
82 | C22U A41U C73U C82G A83U C124U | -4.15
83 | G23U G52A C53G C115U | -7.2
84 | A27U C72U | -3.48
85 | G23U A37G C94G | -6.35
86 | A26U G44C G48C C101A A111G U112A C124A | -8.24
87 | A26G G48A C49G A121U | -0.318
88 | A24U C49G C64A C104U C123G | -6.64
89 | A24U A83U | -7.24
90 | C22U G120C U130G | -4.69
91 | G23C C34U U38A A46U C86G G110C | -8.09
92 | A24G A119U | -2.54
93 | A26U C101A C114A C123G | -6.37
94 | C22U C70U G117C | -6.77
95 | G25A A121U | -2.9
96 | A26G G45A G120C | -1.66

Row | Variant | polymerase ribozyme fitness (log ratio)
97 | C22U C53A C72U C98U C123U | -4.73
98 | A27U C70U C73G A84G C89G C114G | -6.4
99 | G23A G77C G120C | -6.71
100 | A27U C40A C70A | -6.74
101 | A26U C70A | -5.16
102 | A26U C70U | -4.13
103 | A27C G47U G63A C86U | -6.59
104 | C22U C62A | -4.41
105 | A26G C53A C56U G93C U96G | -4.22
106 | A26U | -2.98
107 | A26C | -6.07
108 | A26G | -1.67
109 | G25U A26G C64U | -2.74
110 | C22U C82U | -4.56
111 | A26G C94G | -3.05
112 | A27C C28U | -5.13
113 | A27C C28G | -4
114 | A24C G120A | -4.02
115 | A24G A41G C88U U92A U112A U131C | -3.58
116 | A26U A46C A90G U106A G127C | -2.32
117 | A24C A37C A121U | -6.59
118 | A24G G63U G113U | -6.59
119 | A26U C53U C72U U116G | -6.07
120 | A27C G120A | -3

Row | Variant | polymerase ribozyme fitness (log ratio)
121 | A27C G120U | -4.08
122 | A26G C70U | -2.78
123 | G23C G45C G51U G71C G120C | -6.31
124 | A26U C72G G120A | -2.51
125 | A26U G127C | -3.57
126 | A24G C40G G52U | -4.31
127 | A26U C124U | -2.17
128 | G23C A27C C53U U54C C62A C88G C99U C124U U130A U131G | -7.2
129 | G25C A26G C28A C72A G110A | -5.56
130 | C22U A27C U87G | -5.65
131 | G23A G61A U87C | -6.59
132 | A24G G128A | -3.49
133 | A24G G128U | -4.32
134 | C22U A24U G57U C82U C115A | -6.34
135 | A26G G42C C72A | -5.15
136 | A26U G39U G60C U78C G117C | -6.27
137 | A26G G47A C49G G71U | -4.24
138 | C22G G77C C88G C123U | -3.61
139 | A27U C49A C56U C62U U87G G113C | -6.58
140 | A26U G39A C49G G61A C88U C124G | -3.77
141 | A26G U109G | -6.07
142 | A24U C72G | -5.64
143 | A27G U55A | -2.6
144 | A27G A29C G36A A46C C72G U106C U112G U116A | -7.34

Row | Variant | polymerase ribozyme fitness (log ratio)
145 | C22U C53G G61A U106A A118G | -5.66
146 | A27U C62G | -5.76
147 | A26G C82A G113A A119U G120C | -3.14
148 | C22G U112G | -2.35
149 | A24G G60C C79A G122A | -5.59
150 | A26G C53A U81G | -3.49
151 | A26U U54A G110A | -5.04
152 | A26G G69U | -2.23
153 | A24U C34A U59A G63U C80A G113A | -7.46
154 | A26U A83U | -2.58
155 | A27U A121C | -0.527
156 | A27U C72U C85G A111U U132A | -4.04
157 | A27G G45U U96G G120U | -3.04
158 | C22G U78C | -3.01
159 | C22G U78G | -4.47
160 | A27G A50C A111U | -3.29
161 | A27U C40G U132A | -5.01
162 | A26U C72G C97G G117U U125A | -6.79
163 | A26G G60C | -3.07
164 | A26U G69A U78G U106A | -4.44
165 | A26C G61A U96A | -5.9
166 | A24U U30C G58A G63C A95G G120C | -8.06
167 | G23A G77U | -6.47
